# Data reported in article PMC10573625, “Interaction of VvDELLA2 and VvCEB1 Mediates Expression of Expansion-Related Gene during GA-Induced Enlargement of Grape Fruit”.
# T1: VvCEB1 (UniProt I6QS36 1-270)
# T1 sequence: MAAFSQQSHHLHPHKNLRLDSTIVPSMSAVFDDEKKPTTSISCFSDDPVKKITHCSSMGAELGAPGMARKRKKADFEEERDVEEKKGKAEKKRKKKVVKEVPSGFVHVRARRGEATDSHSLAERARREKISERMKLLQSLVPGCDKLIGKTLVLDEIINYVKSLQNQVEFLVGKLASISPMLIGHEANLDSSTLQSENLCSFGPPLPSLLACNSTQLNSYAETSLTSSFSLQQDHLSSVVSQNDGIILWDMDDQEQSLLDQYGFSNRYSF
# B1: PVvEXPA8-biotin (dsDNA)
# DNA 1: TGGTAGTCTAACTTGAACAAAACATATGCATGTGCAG
# DNA 2: CTGCACATGCATATGTTTTGTTCAAGTTAGACTACCA
# B2: PVvEXPA8-mut (dsDNA)
# DNA 1: TGGTAGTCTAACTTGAACAAAACATATGCATTTTCAG
# DNA 2: CTGAAAATGCATATGTTTTGTTCAAGTTAGACTACCA
# B3: PVvEXPA8 (unlabelled competitor) (dsDNA)
# DNA 1: TTGGTAGTCTAACTTGAACAAAACATATGCATGTGCAG
# DNA 2: CTGCACATGCATATGTTTTGTTCAAGTTAGACTACCA
# B4: PVvEXPA11-biotin (dsDNA)
# DNA 1: CTACTTGCAGAGATCACATGTGAGGCTGTTGCATT
# DNA 2: AATGCAACAGCCTCACATGTGATCTCTGCAAGTAG
# B5: PVvEXPA11 (unlabelled competitor) (dsDNA)
# DNA 1: CTACTTGCAGAGATCACATGTGAGGCTGTTGCATT
# DNA 2: AATGCAACAGCCTCACATGTGATCTCTGCAAGTAG
# B6: PVvEXPA11-mut (dsDNA)
# DNA 1: CTACTTGCAGAGATCACATTTTAGGCTGTTGCATT
# DNA 2: AATGCAACAGCCTAAAATGTGATCTCTGCAAGTAG
# How the values were obtained:
# VvCEB1 [1] = target: T1, VvCEB1; assay: EMSA; Binding buffer, salt, pH and temperature not stated; Beyotime chemiluminescent biotin-labelled nucleic acid detection kit; probes annealed at 72 C for 30 min; conditions: protein: recombinant; tags: His (pET-30a(+)); chain copies: 2; label: 5'-biotin; blunt
# VvCEB1 [2] = target: T1, VvCEB1; assay: EMSA; band disappeared completely with mutated probe; Binding buffer, salt, pH and temperature not stated; Beyotime chemiluminescent biotin-labelled nucleic acid detection kit; probes annealed at 72 C for 30 min; conditions: protein: recombinant; tags: His (pET-30a(+)); chain copies: 2; blunt
# VvCEB1 [3] = target: T1, VvCEB1; assay: competition; unlabelled competitor against biotin probe N1; band significantly weakened; Binding buffer, salt, pH and temperature not stated; Beyotime chemiluminescent biotin-labelled nucleic acid detection kit; probes annealed at 72 C for 30 min; conditions: protein: recombinant; tags: His (pET-30a(+)); chain copies: 2; 5' overhang 1 nt as printed
# VvCEB1 [4] = target: T1, VvCEB1; assay: competition; unlabelled competitor against biotin probe N4; band significantly weakened; Binding buffer, salt, pH and temperature not stated; Beyotime chemiluminescent biotin-labelled nucleic acid detection kit; probes annealed at 72 C for 30 min; conditions: protein: recombinant; tags: His (pET-30a(+)); chain copies: 2; blunt
Binder,binding result (VvCEB1 [1]),binding result (VvCEB1 [2]),also measured
B1,binds,–,–
B2,–,no binding,–
B3,–,–,binding result (VvCEB1 [3]): binds
B4,binds,–,–
B5,–,–,binding result (VvCEB1 [4]): binds
B6,–,no binding,–
